Drawing on patent publication US20140178333A1, this text covers ISRE-luciferase fold induction over medium alone, 293 HEK cells transfected with ISRE-Luc. and IL-28R; ligand 100 ng/ml (fold induction) and ISRE-luciferase fold induction over medium alone, 293 HEK cells transfected with ISRE-Luc. and IL-28R; ligand 125 ng/ml (fold induction) for 3 substances.

The assay deals with IL-28 receptor (IL-28 receptor alpha subunit with endogenous CRF2-4) on transfected 293 HEK cells (human). The assay is described as follows: cell-based or functional assay.
Sequence of IL-28 receptor (IL-28 receptor alpha subunit with endogenous CRF2-4) on transfected 293 HEK cells (human) (Q8IU57 21-520): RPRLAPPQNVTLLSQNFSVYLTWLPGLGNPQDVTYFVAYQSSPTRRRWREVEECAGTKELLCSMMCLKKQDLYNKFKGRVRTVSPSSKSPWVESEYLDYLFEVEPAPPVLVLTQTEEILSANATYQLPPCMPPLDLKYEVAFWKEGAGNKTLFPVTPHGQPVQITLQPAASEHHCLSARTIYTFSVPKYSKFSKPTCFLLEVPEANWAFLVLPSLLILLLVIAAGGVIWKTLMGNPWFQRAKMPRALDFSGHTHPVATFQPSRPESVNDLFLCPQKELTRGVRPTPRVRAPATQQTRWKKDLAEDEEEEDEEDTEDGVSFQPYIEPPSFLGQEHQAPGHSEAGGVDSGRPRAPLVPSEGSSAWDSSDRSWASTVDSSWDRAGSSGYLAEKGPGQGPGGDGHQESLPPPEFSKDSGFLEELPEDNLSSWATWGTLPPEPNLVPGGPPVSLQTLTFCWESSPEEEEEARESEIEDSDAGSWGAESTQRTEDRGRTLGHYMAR

Regarding “HuIL10 (from UniProt P22301 19-178) (ligand)”, the ISRE-luciferase fold induction over medium alone, 293 HEK cells transfected with ISRE-Luc. and IL-28R; ligand 100 ng/ml (fold induction) is 0.5. The substance “IL-28B (SEQ ID NO:6) (from UniProt Q8IZI9 22-196) (ligand)” registered an ISRE-luciferase fold induction over medium alone, 293 HEK cells transfected with ISRE-Luc. and IL-28R; ligand 125 ng/ml (fold induction) of 104.

Substance “Zcyto10 (from UniProt Q9NYY1 25-176) (ligand)” gave an ISRE-luciferase fold induction over medium alone, 293 HEK cells transfected with ISRE-Luc. and IL-28R; ligand 125 ng/ml (fold induction) of 1.
